Reference: publication PMC4931565, “Higher‐order assemblies of oligomeric cargo receptor complexes form the membrane scaffold of the Cvt vesicle” (EMBO Reports, 2016)
Numbering of substitutions follows the chain as printed. In names and notes the source's numbering stands. Several values for one entry are separate records, joined by “and”; a condition that tells them apart may be missing. Identical values can stand only once. Blank lines part the entries; values can stand above or below the molecule they belong to.

T1: Saccharomyces cerevisiae mApe1 (mature Ape1 lacking the N-terminal propeptide) (S. cerevisiae), P14904
T1 chain: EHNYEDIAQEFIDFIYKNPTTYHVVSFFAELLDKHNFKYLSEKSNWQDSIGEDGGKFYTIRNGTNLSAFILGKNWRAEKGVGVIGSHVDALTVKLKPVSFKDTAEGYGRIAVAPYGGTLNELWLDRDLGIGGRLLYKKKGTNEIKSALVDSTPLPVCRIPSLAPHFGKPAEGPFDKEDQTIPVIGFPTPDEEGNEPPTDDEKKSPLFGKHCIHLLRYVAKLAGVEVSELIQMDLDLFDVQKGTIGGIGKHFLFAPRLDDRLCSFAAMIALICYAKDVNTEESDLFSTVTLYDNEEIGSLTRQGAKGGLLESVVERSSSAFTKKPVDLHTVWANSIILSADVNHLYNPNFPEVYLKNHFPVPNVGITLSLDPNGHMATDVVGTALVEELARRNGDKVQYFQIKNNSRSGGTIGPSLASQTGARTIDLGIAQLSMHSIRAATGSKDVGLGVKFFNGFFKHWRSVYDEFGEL

B1: Saccharomyces cerevisiae prApe1 (vacuolar aminopeptidase I with its N-terminal propeptide) (natural protein, S. cerevisiae, UniProt P14904 1-514, looked up)
chain: MEEQREILEQLKKTLQMLTVEPSKNNQIANEEKEKKENENSWCILEHNYEDIAQEFIDFIYKNPTTYHVVSFFAELLDKHNFKYLSEKSNWQDSIGEDGGKFYTIRNGTNLSAFILGKNWRAEKGVGVIGSHVDALTVKLKPVSFKDTAEGYGRIAVAPYGGTLNELWLDRDLGIGGRLLYKKKGTNEIKSALVDSTPLPVCRIPSLAPHFGKPAEGPFDKEDQTIPVIGFPTPDEEGNEPPTDDEKKSPLFGKHCIHLLRYVAKLAGVEVSELIQMDLDLFDVQKGTIGGIGKHFLFAPRLDDRLCSFAAMIALICYAKDVNTEESDLFSTVTLYDNEEIGSLTRQGAKGGLLESVVERSSSAFTKKPVDLHTVWANSIILSADVNHLYNPNFPEVYLKNHFPVPNVGITLSLDPNGHMATDVVGTALVEELARRNGDKVQYFQIKNNSRSGGTIGPSLASQTGARTIDLGIAQLSMHSIRAATGSKDVGLGVKFFNGFFKHWRSVYDEFGEL
notes: vacuolar aminopeptidase I (Ape1) of S. cerevisiae, 55-kDa zymogen including the N-terminal propeptide; only TEV cleavage of MBP is described there; also called sc-prApe1; full-length prApe1; source: Sf21, purified (glutathione beads, 3C cleavage, Superose 6); also co-expressed with MBP-Atg19 in Sf21 and co-purified on amylose beads; not shown: GST, N-terminal, cleaved; copies: 12
B2: Saccharomyces cerevisiae Ams1 (alpha-mannosidase 1), wild type (natural protein, S. cerevisiae, UniProt P22855 1-1083, looked up)
chain: MSSEDIIYDPQFKPVQGIYENRLRQFIDTGGDYHDLNLPKFYDKKRISLDHDHVKVWWYQVSFERGSSPVSPDKRPSWKSIIERDKKGELEFREANINQPFGPSWSTTWFKVKISLPEDWVKSNEQLLFQWDCSNEGIVIDPKTLIPVTAFSGGERTEYVLPKTSDGKHFFYIEAGNNGMFGCGAGSTINPPDDNRFFHLRKADIVWPDLDARALYIDFWMLGDAARELPGDSWQKHQARQLGNAVMNLFDPNDRSSVRKCRELLQREYFDSFLESSKVYEQGESQVLTNVYGIGNCHIDTAWLWPFAETRRKIVRSWSSQCTLMDRFPEYKFVASQAQQFKWLLEDHPEFFNKVLIPKIQQSQFFAVGGTWVENDTNIPSGESLARQFFFGQRFFLKHFGLKSKIFWLPDTFGYSSQMPQLCRLSGIDKFLTQKLSWNNINSFPHSTFNWAGIDGSQLLTHMPPGNTYTADSHFGDVLRTAKQNKTPEYYGSGLMLYGKGDGGGGPTEEMLQKMRRIRSMNNRNGNVIPKLQVGITVDEFYDDILKRTNQGHDLPTWSGELYFEFHRGTYTSQAQTKKLMRLSEIKLHDLEWIAAKTSVLYPDSYKYPSKQINELWENVLLCQFHDVLPGSCIEMVYKYEAVPMLHNVVKECTSLIDKTVQFLQSQSKADLVEMRTLTWSKPEKVSEECSLNGSYTSSVTGYDDYIVLANGKLKVIICKKTGVITSITDETLGVEYLDTEHGRNKLGANQFVIYDDKPLGWQAWDTELYSVNQYKYVTKPKKVQVSCNTKEKCAVEVIFQISEKCKIKSVISLNATAVTDAKLSKVDISTTVENWDARNKFLKVEFPVNIRNDFASYETQFGITKRPTHYNTSWDVAKFEVCHHKFADYSEYSKGVSILNDCKYGFSTHGNLMRLSLLRSPKAPDAHADMGTHEIKYAIYPHRGALSSDTVKLAHEFNYCFKYKLPKDIGMNFDDIISISGDENVILSNIKRGEDDSAVKSNYSLNPRDEQSIVVRVYESLGGESFASLNTTLNLKRIEKVDNLEMKVYKSLTATRDESNHAINRIPIKLRPFEIASFRLYF
notes: alpha-mannosidase 1 (Ams1) of S. cerevisiae, 125-kDa full-length protein (model covers residues up to 1083); Expression from pGAPZ-His6-Ams1; also called His6-Ams1; his-Ams1; source: Pichia pastoris SMD1168, purified
B3: Saccharomyces cerevisiae Ams1 W234E mutant (natural protein, S. cerevisiae, UniProt P22855 1-1083, looked up)
chain: B2 chain with W234E
notes: alpha-mannosidase 1 (Ams1) of S. cerevisiae with W234E in the N-terminal four-helix bundle; Same construct as m4 (pGAPZ-His6-Ams1) with the point mutation; also called W234E dimers; source: Pichia pastoris SMD1168, purified
B4: MBP-Atg19 (Saccharomyces cerevisiae Atg19 with N-terminal MBP) (natural protein, S. cerevisiae, UniProt P35193 1-415, looked up)
chain: MNNSKTNQQMNTSMGYPLTVYDECNKFQLIVPTLDANIMLWCIGQLSLLNDSNGCKHLFWQPNDKSNVRILLNNYDYGHLFKYLQCQRKCSVYIGEGTLKKYNLTISTSFDNFLDLTPSEEKESLCREDAHEDPVSPKAGSEEEISPNSTSNVVVSRECLDNFMKQLLKLEESLNKLELEQKVTNKEPNHRISGTIDIPEDRSELVNFFTELKTVKQLEDVFQRYHDYERLSQECDSKTEIASDHSKKETKIEVEPPNERSLQITMNQRDNSLYFQLFNNTNSVLAGNCKLKFTDAGDKPTTQIIDMGPHEIGIKEYKEYRYFPYALDLEAGSTIEIENQYGEVIFLGKYGSSPMINLRPPSRLSAESLQASQEPFYSFQIDTLPELDDSSIISTSISLSYDGDDNEKALTWEEL
notes: autophagy receptor Atg19 of S. cerevisiae, from cDNA; source: Sf21, purified (amylose beads, eluted with maltose); also in Sf21 lysate, co-expressed with prApe1; not shown: MBP, N-terminal, kept
B5: Saccharomyces cerevisiae Atg19 (MBP tag cleaved) (natural protein, S. cerevisiae, UniProt P35193 1-415, looked up)
chain: B4 chain
notes: autophagy receptor Atg19 of S. cerevisiae, from cDNA; also called trimeric Atg19; source: Sf21, purified (amylose beads, TEV cleavage, DEAE ion exchange); or co-purified with prApe1 (amylose beads, TEV cleavage, Superose 6); not shown: MBP, N-terminal, cleaved
B6: Saccharomyces cerevisiae mApe1 (mature Ape1 lacking the N-terminal propeptide), P14904 46-514 (natural protein)
chain: T1 chain

What was measured:
[1] = target: Chaetomium thermophilum mApe1 (Chaetomium thermophilum); test: negative stain EM; purified protein or purified complex, 2% uranyl acetate, droplet technique; particles and class averages
[2] = target: Chaetomium thermophilum mApe1 (Chaetomium thermophilum); test: crystal structure; ct-mApe1, hanging drop, 4 C, 100 mM Hepes pH 6.6, 4 M sodium formate; 2.8 A
[3] = target: the molecule itself; test: negative stain EM; purified protein or purified complex, 2% uranyl acetate, droplet technique; particles and class averages
[4] = target: the molecule itself; test: cryo-EM structure; His6-Ams1 0.4 mg/ml in 50 mM Tris-HCl, 175 mM NaCl, 75 mM imidazole; D2 symmetry, 6.3 A
[5] = target: B2; test: pull-down; purified MBP-Atg19 or MBP (1 uM) mixed with his-Ams1 (1 uM), mApe1 (1 uM) or prApe1 (0.7 uM) overnight at 4 C in 50 mM Tris-HCl pH 7.5, 25 mM NaCl, 5 mM MgCl2, 1 mM DTT, 0.2% NP-40; captured on amylose beads; SDS-PAGE, Coomassie; details: both partners purified
[6] = target: the molecule itself; test: SEC-MALS; Atg19 about 2 mg/ml, 50 mM Tris pH 7.5, 150 mM NaCl, 0.5 mM TCEP, Superose 6 increase, room temperature, triplicate
[7] = target: T1, Saccharomyces cerevisiae mApe1 (mature …); test: negative stain EM; purified protein or purified complex, 2% uranyl acetate, droplet technique; particles and class averages; details: remark: other sources report otherwise
[8] = target: T1, Saccharomyces cerevisiae mApe1 (mature …); test: negative stain EM; GraFix-purified sc-mApe1 (10-30% glycerol with 0-0.15% glutaraldehyde gradient, 50 mM Hepes pH 7.5, 150 mM NaCl); 3D reconstruction with tetrahedral symmetry, 24 A; details: remark: other sources report otherwise

- stoichiometry N [1]: 12
- stoichiometry N [2]: 12
Molecule: Chaetomium thermophilum mApe1 (natural protein)

Molecule: B1
- stoichiometry N [3]: 12

Molecule: B2
- stoichiometry N [4]: 4

Molecule: B3
- stoichiometry N [3]: 2

Molecule: B4
- binding result [5]: binds

Molecule: B5
- stoichiometry N [6]: 3

Molecule: B6
- stoichiometry N [7]: 12 and 6
- stoichiometry N [8]: 12
